Measurements published in patent US12545899B2, “Luciferase enzymes for use with thermostable luciferins in bioluminescent assays” (Promega Corporation, priority 2018, dated 2026).

Key:
[1] = Brightness of additional luciferase enzyme variants with CS0280; assay type: biochemical; conditions: Table 7A, 1 mM CS0280; for Fold-improvement over ATG3707, CS0280 BG: Bright-Glo buffer; for Fold-improvement over ATG3707, CS0280 DR: Detection Reagent buffer
Protocol: (§1) Additional luciferase enzyme variants were generated and evaluated for their stability and activity. To evaluate the additional luciferase enzyme variants, 0.005 mg/ml luciferase enzyme variant was mixed with 1 mM ATP+1 mM substrate in either Bright-Glo™ (BG) or Detection Reagent (DR) buffers. […] (Table 7A is colored according to their relative luminescence values within each column across a red to green color spectrum with the lowest values colored red and the highest values colored green.)

[2] = Brightness of additional luciferase enzyme variants with CS0333; assay type: biochemical; conditions: Table 7A, 1 mM CS0333; for Fold-improvement over ATG3707, CS0333 BG: Bright-Glo buffer; for Fold-improvement over ATG3707, CS0333 DR: Detection Reagent buffer
Protocol: as §1

[3] = Kinetic analysis of ATG-3707 variants with CS0333; assay type: biochemical
Protocol: Additionally, Table 5 (below) includes kinetic analysis of the ATG-3707 variants identified above. Reagent compositions included CS0333 serially diluted 10-fold from 1 mM to 10 fM in reaction buffer with 2 mM ATP. […] Reactions were incubated at 25° C. for 3 min, and luminescence was read and then normalized to ATG-3707 activity tested in parallel. […] Since C2157D2 was selected for improved brightness in CellTiterGlo® buffer over ATG-3707, it still had beneficial properties.

[4] = Differential scanning fluorimetry (DSF) analysis; assay type: physicochemical; set-up: key to DSF Tm: melting temperature in °C (heated 30-95 °C at 1 °C/min); conditions: Table 7A
Protocol: (§2) To conduct the experiment, Sypro Orange (5000×) was diluted in water to 3× and combined with enzymes stored in 50 mM HEPES pH 7.5, 100 mM NaCl, 2 mM EDTA to a final concentration of 5×. Fluorescence was read at 60 second intervals as the reactions were heated at 1° C. per minute from 30-95° C. The change in fluorescence at each minute was calculated and plotted for each temperature in the range.
as §2, with “The luciferase enzyme variants generated were also evaluated using DSF analysis as shown in the representative results provided in Tables 7A and 7B above. To” for “To”, “the experiments,” for “the experiment,”, “in 20” for “in 50”, “7.5, 200” for “7.5, 100”, “NaCl, 1” for “NaCl, 2”

[5] = Luminescence of ATG-3707 variants (second round epPCR) with CS0333; assay type: biochemical; conditions: for Luminescence (RLU) BrightGlo / Normalized Luminescence BrightGlo: BrightGlo buffer; for Luminescence (RLU) BrightGlo / Luminescence (RLU) CellTiterGlo / Luminescence (RLU) Detection Reagent: 25° C., 3 min; for Normalized Luminescence BrightGlo / Normalized Luminescence CellTiterGlo / Normalized Luminescence Detection Reagent: normalized to ATG-3707; for Luminescence (RLU) CellTiterGlo / Normalized Luminescence CellTiterGlo: CellTiterGlo buffer; for Luminescence (RLU) Detection Reagent / Normalized Luminescence Detection Reagent: Detection Reagent buffer
Protocol: Reagent compositions included CS0333 diluted from 20 mM to 2 mM in reaction buffer with 2 mM ATP. […] Reactions were incubated at 25° C. for 3 min, and luminescence was read and then normalized to ATG-3707 activity tested in parallel.

Row | Molecule | Fold-improvement over ATG3707, CS0280 BG [1] | Fold-improvement over ATG3707, CS0280 DR [1] | Fold-improvement over ATG3707, CS0333 BG [2] | Fold-improvement over ATG3707, CS0333 DR [2] | Km ([3]; BrightGlo) [µM] | Vmax (RLU) ([3]; BrightGlo) | Km ([3]; Detection Reagent) [µM] | Vmax (RLU) ([3]; Detection Reagent) | DSF Tm [4] | Luminescence (RLU) BrightGlo [5] [RLU] | Normalized Luminescence BrightGlo [5] | Luminescence (RLU) CellTiterGlo [5] [RLU] | Normalized Luminescence CellTiterGlo [5] | Luminescence (RLU) Detection Reagent [5] [RLU] | Normalized Luminescence Detection Reagent [5]
1 | C2260B6: SEQ ID NO: 43; H244W+T344A+I396K+S193A+N228D+L305F+S306P+I109V+Y108F+V261A+N427D+F431V (protein) MADKNILYGPEPFYPLEDGTAGEQMFDALSRYAAIPGCIALTNAHTKENVLYEEFLKLSCRLAESFKKYGLKQNDTIAVCSENSLQFFLPVIASLYLGIIVAPVNDKFVERELIHSLGIVKPRIVFCSKNTFQKVLNVKSKLKSIETIIILDLNEDLGGYQCLNNFISQNSDSNLDVKKFKPYSFNRDDQVAAIMFSSGTTGLPKGVMLTHKNIVARFSIAKDPTFGDAINPTSAILTVIPFHWGFGMMTTLGYFTCGFRAVLMHTFEEKLFLQSLQDYKVESTLLVPTLMAFLAKSALVEKYDFPHLKEIASGGAPLSKEIGEMVKKRFKLNFVRQGYGLTEATSAVLITPKGDAKPGSTGKIVPLHAVKVVDPTTGKILGPNEPGELYFKGPMKMKGYYNNEEATKAIIDNDGWLRSGDIAYYDDDGHVYIVDRLKSLIKYKGYQVAPAEIEGILLQHPYIVDAGVTGIPDEAAGELPAAGVVVQTGKYLNEQIVQDYVASQVSTAKWLRGGVKFLDEIPKGSTGKIDRKVLRQMLEKHTNGHHHHHHHH | 0.82 | 0.97 | 0.70 | 1.00 | 4.06 | 4,439,047 RLU | 68.2 | 4,995,834 RLU | 55 | 2896240 | 0.74 | 921045 | 1.43 | 6230440 | 1.21
2 | C2261D1: SEQ ID NO: 52; H244W+T344A+I396K+S193A+N228D+L305F+S306P+I109V+K121Q+V261A+V287I (protein) MADKNILYGPEPFYPLEDGTAGEQMFDALSRYAAIPGCIALTNAHTKENVLYEEFLKLSCRLAESFKKYGLKQNDTIAVCSENSLQFFLPVIASLYLGIIVAPVNDKYVERELIHSLGIVQPRIVFCSKNTFQKVLNVKSKLKSIETIIILDLNEDLGGYQCLNNFISQNSDSNLDVKKFKPYSFNRDDQVAAIMFSSGTTGLPKGVMLTHKNIVARFSIAKDPTFGDAINPTSAILTVIPFHWGFGMMTTLGYFTCGFRAVLMHTFEEKLFLQSLQDYKVESTLLIPTLMAFLAKSALVEKYDFPHLKEIASGGAPLSKEIGEMVKKRFKLNFVRQGYGLTEATSAVLITPKGDAKPGSTGKIVPLHAVKVVDPTTGKILGPNEPGELYFKGPMKMKGYYNNEEATKAIIDNDGWLRSGDIAYYDNDGHFYIVDRLKSLIKYKGYQVAPAEIEGILLQHPYIVDAGVTGIPDEAAGELPAAGVVVQTGKYLNEQIVQDYVASQVSTAKWLRGGVKFLDEIPKGSTGKIDRKVLRQMLEKHTNGHHHHHHHH | 2.02 | 2.41 | 1.27 | 1.24 | 5.92 | 4,702,332 RLU | 79.8 | 4,103,451 RLU | 54 | 3436380 | 0.88 | 841889 | 1.31 | 4820920 | 0.93
3 | C2158A3: SEQ ID NO: 45; H244W+T344A+I396K+S193A+N228D+L305F+S306P+I109V+Q487R (protein) MADKNILYGPEPFYPLEDGTAGEQMFDALSRYAAIPGCIALTNAHTKENVLYEEFLKLSCRLAESFKKYGLKQNDTIAVCSENSLQFFLPVIASLYLGIIVAPVNDKYVERELIHSLGIVKPRIVFCSKNTFQKVLNVKSKLKSIETIIILDLNEDLGGYQCLNNFISQNSDSNLDVKKFKPYSFNRDDQVAAIMFSSGTTGLPKGVMLTHKNIVARFSIAKDPTFGDAINPTSAILTVIPFHWGFGMMTTLGYFTCGFRVVLMHTFEEKLFLQSLQDYKVESTLLVPTLMAFLAKSALVEKYDFPHLKEIASGGAPLSKEIGEMVKKRFKLNFVRQGYGLTEATSAVLITPKGDAKPGSTGKIVPLHAVKVVDPTTGKILGPNEPGELYFKGPMKMKGYYNNEEATKAIIDNDGWLRSGDIAYYDNDGHFYIVDRLKSLIKYKGYQVAPAEIEGILLQHPYIVDAGVTGIPDEAAGELPAAGVVVRTGKYLNEQIVQDYVASQVSTAKWLRGGVKFLDEIPKGSTGKIDRKVLRQMLEKHTNGHHHHHHHH | 1.30 | 1.49 | 0.92 | 1.15 | 5.15 | 4,009,543 RLU | 101 | 3,944,016 RLU | 61 | 3392960 | 0.87 | 1027180 | 1.59 | 6034440 | 1.17
4 | C2240E2: SEQ ID NO: 40; H244W+T344A+I396K+S193A+N228D+L305F+S306P+I109V+I230F+V335G+I410M (protein) MADKNILYGPEPFYPLEDGTAGEQMFDALSRYAAIPGCIALTNAHTKENVLYEEFLKLSCRLAESFKKYGLKQNDTIAVCSENSLQFFLPVIASLYLGIIVAPVNDKYVERELIHSLGIVKPRIVFCSKNTFQKVLNVKSKLKSIETIIILDLNEDLGGYQCLNNFISQNSDSNLDVKKFKPYSFNRDDQVAAIMFSSGTTGLPKGVMLTHKNIVARFSIAKDPTFGDAFNPTSAILTVIPFHWGFGMMTTLGYFTCGFRVVLMHTFEEKLFLQSLQDYKVESTLLVPTLMAFLAKSALVEKYDFPHLKEIASGGAPLSKEIGEMVKKRFKLNFGRQGYGLTEATSAVLITPKGDAKPGSTGKIVPLHAVKVVDPTTGKILGPNEPGELYFKGPMKMKGYYNNEEATKAMIDNDGWLRSGDIAYYDNDGHFYIVDRLKSLIKYKGYQVAPAEIEGILLQHPYIVDAGVTGIPDEAAGELPAAGVVVQTGKYLNEQIVQDYVASQVSTAKWLRGGVKFLDEIPKGSTGKIDRKVLRQMLEKHTNGHHHHHHHH | 1.24 | 1.39 | 1.26 | 1.21 | 3.97 | 5,559,638 RLU | 88.7 | 5,831,602 RLU | 49 | 3202900 | 0.82 | 976519 | 1.51 | 6978270 | 1.35
5 | C2261D9: SEQ ID NO: 41; H244W+T344A+I396K+S193A+N228D+L305F+S306P+I109V+C38R+Y108F+T376I (protein) MADKNILYGPEPFYPLEDGTAGEQMFDALSRYAAIPGRIALTNAHTKENVLYEEFLKLSCRLAESFKKYGLKQNDTIAVCSENSLQFFLPVIASLYLGIIVAPVNDKFVERELIHSLGIVKPRIVFCSKNTFQKVLNVKSKLKSIETIIILDLNEDLGGYQCLNNFISQNSDSNLDVKKFKPYSFNRDDQVAAIMFSSGTTGLPKGVMLTHKNIVARFSIAKDPTFGDAINPTSAILTVIPFHWGFGMMTTLGYFTCGFRVVLMHTFEEKLFLQSLQDYKVESTLLVPTLMAFLAKSALVEKYDFPHLKEIASGGAPLSKEIGEMVKKRFKLNFVRQGYGLTEATSAVLITPKGDAKPGSTGKIVPLHAVKVVDPITGKILGPNEPGELYFKGPMKMKGYYNNEEATKAIIDNDGWLRSGDIAYYDNDGHFYIVDRLKSLIKYKGYQVAPAEIEGILLQHPYIVDAGVTGIPDEAAGELPAAGVVVQTGKYLNEQIVQDYVASQVSTAKWLRGGVKFLDEIPKGSTGKIDRKVLRQMLEKHTNGHHHHHHHH | 1.39 | 1.89 | 1.10 | 1.43 | 7.46 | 6,903,348 RLU | 117 | 6,756,516 RLU | 61 | 4380280 | 1.13 | 628712 | 0.98 | 6890380 | 1.34
